Source: patent US20050260568A1, “Hepatitis C virus assays” (priority 2004, published 2005)

How the values were obtained:
[1] = tested on: Huh-7 replicon cells; assay: Alamar Blue cytotoxicity assay; type: cell-based; settings: lower concentrations of IFN-α (100, 10, 1 units)
Protocol: (§1) Subsequent to addition of the test compounds described above (FRET Assay Preparation), at various times the plate was removed and Alamar Blue solution (Trek Diagnostics, #00-100) was added per well as a measure of cellular toxicity. After reading in a Cytoflour 4000 instrument (PE Biosystems), plates were rinsed with PBS and then used for FRET assay by the addition of 30 ul of the FRET peptide assay reagent described above (FRET Assay Preparation) per well. The plate was then placed into the Cytoflour 4000 instrument which had been set to 340 excite/490 emission, automatic mode for 20 cycles and the plate read in a kinetic mode. Typically, the signal to noise using an endpoint analysis after the reads was at least three-fold.
Compound analysis was determined by quantification of the relative HCV replicon inhibition and the relative cytotoxicity values. To calculate cytotoxicity values, the average Alamar Blue fluorescence signals from the control wells in row 11 (FIG. 4) were set as 100% non-toxic. The individual signals in each of the compound test wells were then divided by the average control signal and multiplied by 100% to determine […]. To calculate the HCV replicon inhibition values, an average background value FRET signal was obtained from the two wells containing the highest amount of interferon at the end of the assay period. […]

[2] = tested on: HCV replicon; assay: HCV replicon FRET assay (NS3 protease activity as indirect measure of HCV RNA replication); type: cell-based, Hepatitis C virus; settings: FIG. 7A IFN-α control titration 1000 to 1 units
Description: To perform the HCV FRET screening assay, 96-well cell culture plates were used. The FRET peptide (Anaspec, Inc.) (Taliani et al., Anal. Biochem. 240:60-67 (1996), expressly incorporated by reference in its entirety) contains a fluorescence donor, EDANS, near one end of the peptide and an acceptor, DABCYL, near the other end. The fluorescence of the peptide is quenched by intramolecular resonance energy transfer (RET) between the donor and the acceptor, but as the NS3 protease cleaves the peptide the products are released from RET quenching and the fluorescence of the donor becomes apparent. […]
as §1, with “three-fold. […]” for “three-fold.”

In the case of Interferon alpha [IFN-α], the “cytotoxicity (Alamar Blue staining change)” value [1] is reported as “no apparent Alamar Blue staining change” and the “EC50 in control samples of random compound plate (FRET)” value [2] is reported as “close to or slightly lower than the lowest concentration of IFN-α used”.
